Data as given in the MegaScale stability set (Tsuboyama et al. 2023).

B1: EEHEE_rd3_1049 (parent)
chain: TTVKLGDIKVTFDNPEKAKKYAQKLAKIYQLTVHVHGDTIHVK

Variants of: B1
Experiment: folding stability dG (cDNA display proteolysis); higher = more stable
Details: PBS, room temperature

Folding stability dG [kcal/mol]: each site, then its substitutions
Y21: F 2.36 | N -0.383 | P -0.648 | E -0.031 | V 0.867 | M 0.885 | Q -0.123 | T 0.282 | R 0.268 | C 2.04 | I 0.827 | G -0.676 | K -0.234 | H 0.523 | D -0.407 | A 0.651 | S -0.364 | W 2.22 | L 1.15
L25: H 0.021 | T 0.212 | R 0.324 | P -0.554 | S -0.33 | E -0.772 | M 1.55 | K 0.474 | V 1.26 | F 0.868 | Y 0.832 | N -0.312 | A 0.276 | C 2.11 | I 1.83 | W 1.44 | G -0.255 | D -0.607 | Q 0.293
K19: D 0.873 | L 3.31 | H 2.14 | M 3.54 | A 1.9 | P -0.502 | S 1.49 | E 1.47 | I 2.54 | C 3.38 | V 1.97 | R 2.23 | G 0.985 | F 2.93 | Q 1.89 | W 3.16 | N 1.64 | T 1.55 | Y 2.9
Q23: P -0.329 | G 1.06 | D 1.91 | A 2.1 | C 3.24 | E 2.19 | Y 2.29 | V 1.73 | L 2.22 | K 1.87 | W 2.06 | M 2.25 | N 1.88 | S 1.58 | R 1.94 | T 1.64 | F 2.14 | I 2.03 | H 1.9
A18: W 1.26 | Y 0.624 | V 0.492
K20: V 1.78 | Q 2.02 | W 2.18 | D 1.55 | P -0.125 | G 1.13 | H 1.67 | T 1.57 | I 1.97 | R 2.21 | Y 1.92 | A 2.27 | C 2.63 | N 1.66 | L 2.08 | E 2.06 | S 1.71 | M 2.04 | F 1.8
K24: P -0.36 | T 1.83 | H 2.27 | A 1.98 | D 1.36 | I 2.28 | L 2.67 | S 1.57 | Y 3.04 | N 1.58 | V 1.96 | G 1.23 | F 2.87 | E 1.66 | R 2.17 | Q 1.86 | M 2.65 | W 3.42
K27: N 1.65 | L 2.1 | P -0.326 | M 2.01 | F 2.1 | R 2.27 | E 2.04 | I 1.79 | D 1.79 | H 1.71 | Q 1.94 | A 2.03 | G 1.37 | C 2.95
A22: S 0.584 | I 1.48 | T 0.394 | F 1.08 | K 0.531 | V 1.34 | L 1.47 | D -0.543 | N 0.115 | Q 0.388 | H 0.262 | W 1.24 | Y 0.937 | R 0.612 | G 0.327 | P -0.681 | E -0.139 | M 1.07
A26: F 1.11 | K 1.02 | I 1.09 | R 1.37 | D 0.078 | T 0.662 | N 0.427 | Q 0.896 | H 0.547 | S 1.23 | P -0.282 | L 1.16 | E 0.645 | W 1.2 | M 1.23 | G 0.898 | Y 1.01 | C 2.77 | V 0.862
